Results published in the supplement of paper PMC11780869.

System: Bacillus subtilis
Test: cleaved RNA product abundance (RNA/gDNA barcode ratio) relative to median wild-type variant (ratio to wild type); higher = more accumulation of the downstream cleavage product
Conditions: cleavage site: cggR-gapA (positions -7 to +36 mutated)
Outline: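 Cleaved product abundance was measured with barcoded reporter mRNAs (truncated aprE or tetM) carrying mutagenized RNase Y cleavage-site windows in the B. subtilis chromosome. Cultures in LB at 37°C grew from OD600 0.0003 to 0.3. Gel-selected cleaved RNA was reverse transcribed and barcode-sequenced with genomic DNA barcodes, and the RNA:gDNA barcode ratio per construct was scaled to the median construct bearing the unmutated site.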

[1] = experiment (reporter, strain, medium): exp 4a: truncated aprE reporter, strain BJT201 with 2% xylose (RNase J1 expressed)
[2] = experiment (reporter, strain, medium): exp 2b: truncated aprE reporter, strain BJT200

Row | Sequence | cleaved RNA product abundance [1] | cleaved RNA product abundance [2] | cleaved RNA product abundance (experiment (reporter, strain, medium): exp 6: tetM reporter, strain 168)
1 | ACAGACGAAGGAGCCGCAAAGAAGTTAATAAGGGATGAATAAGCCCTCAATATAAATATCTCTCACTTATTTAAA | 0.197 |  | 
2 | ACAGACGAAGGAGCCGCAAAGAAGTTAATAAGGGATGAATAATACCTCAATATAAATATCTCTCACTTATTTAAA | 0.144 | 0.0994 | 
3 | ACAGACGAAGGAGCCGCAAAGAAGTTAATAAGGGATGAATAATCACTCAATATAAATATCTCTCACTTATTTAAA | 0.109 | 0.112 | 
4 | ACAGACGAAGGAGCCGCAAAGAAGTTAATAAGGGATGAATAATCCATCAATATAAATATCTCTCACTTATTTAAA | 0.224 | 0.166 | 
5 | ACAGACGAAGGAGCCGCAAAGAAGTTAATAAGGGATGAATAATCCCACAATATAAATATCTCTCACTTATTTAAA | 0.253 | 0.17 | 
6 | ACAGACGAAGGAGCCGCAAAGAAGTTAATAAGGGATGAATAATCCCGCAATATAAATATCTCTCACTTATTTAAA |  | 0.0984 | 
7 | ACAGACGAAGGAGCCGCAAAGAAGTTAATAAGGGATGAATAATCCCTAAATATAAATATCTCTCACTTATTTAAA | 0.306 |  | 
8 | ACAGACGAAGGAGCCGCAAAGAAGTTAATAAGGGATGAATAATCCCTCAAAATAAATATCTCTCACTTATTTAAA | 0.25 |  | 
9 | ACAGACGAAGGAGCCGCAAAGAAGTTAATAAGGGATGAATAATCCCTCAACATAAATATCTCTCACTTATTTAAA | 0.342 |  | 
10 | ACAGACGAAGGAGCCGCAAAGAAGTTAATAAGGGATGAATAATCCCTCAATACAAATATCTCTCACTTATTTAAA |  | 0.0847 | 
11 | ACAGACGAAGGAGCCGCAAAGAAGTTAATAAGGGATGAATAATCCCTCAATATAAAAATCTCTCACTTATTTAAA | 0.278 |  | 
12 | ACAGACGAAGGAGCCGCAAAGAAGTTAATAAGGGATGAATAATCCCTCAATATAAACATCTCTCACTTATTTAAA | 0.338 |  | 
13 | ACAGACGAAGGAGCCGCAAAGAAGTTAATAAGGGATGAATAATCCCTCAATATAAAGATCTCTCACTTATTTAAA |  | 0.182 | 
14 | ACAGACGAAGGAGCCGCAAAGAAGTTAATAAGGGATGAATAATCCCTCAATATAAATACCTCTCACTTATTTAAA | 0.201 |  | 
15 | ACAGACGAAGGAGCCGCAAAGAAGTTAATAAGGGATGAATAATCCCTCAATATAAATAGCTCTCACTTATTTAAA | 0.293 |  | 
16 | ACAGACGAAGGAGCCGCAAAGAAGTTAATAAGGGATGAATAATCCCTCAATATAAATATCTCTCACTTATTTAAA | 0.349 | 0.264 | 0.555
17 | ACAGACGAAGGAGCCGCAAAGAAGTTAATAAGGGATGAATAATCCCTCAATATAAATCTCTCTCACTTATTTAAA | 0.218 |  | 
18 | ACAGACGAAGGAGCCGCAAAGAAGTTAATAAGGGATGAATAATCCCTCAATATAAATGTCTCTCACTTATTTAAA | 0.303 |  | 
19 | ACAGACGAAGGAGCCGCAAAGAAGTTAATAAGGGATGAATAATCCCTCAATATACATATCTCTCACTTATTTAAA | 0.313 |  | 
20 | ACAGACGAAGGAGCCGCAAAGAAGTTAATAAGGGATGAATAATCCCTCACTATAAATATCTCTCACTTATTTAAA | 0.263 |  | 

Row | Sequence | cleaved RNA product abundance [1] | cleaved RNA product abundance [2] | cleaved RNA product abundance (experiment (reporter, strain, medium): exp 6: tetM reporter, strain 168)
21 | ACAGACGAAGGAGCCGCAAAGAAGTTAATAAGGGATGAATAATCCCTCATTATAAATATCTCTCACTTATTTAAA | 0.794 |  | 
22 | ACAGACGAAGGAGCCGCAAAGAAGTTAATAAGGGATGAATAATCCCTCTATATAAATATCTCTCACTTATTTAAA | 0.39 |  | 
23 | ACAGACGAAGGAGCCGCAAAGAAGTTAATAAGGGATGAATAATCCCTGAATATAAATATCTCTCACTTATTTAAA | 0.533 |  | 
24 | ACAGACGAAGGAGCCGCAAAGAAGTTAATAAGGGATGAATAATCCCTTAATATAAATATCTCTCACTTATTTAAA | 0.519 | 0.572 | 
25 | ACAGACGAAGGAGCCGCAAAGAAGTTAATAAGGGATGAATAATCCGTCAATATAAATATCTCTCACTTATTTAAA |  | 0.177 | 
26 | ACAGACGAAGGAGCCGCAAAGAAGTTAATAAGGGATGAATAATCCTTCAATATAAATATCTCTCACTTATTTAAA | 0.237 | 0.185 | 
27 | ACAGACGAAGGAGCCGCAAAGAAGTTAATAAGGGATGAATAATCGCTCAATATAAATATCTCTCACTTATTTAAA | 0.0788 |  | 
28 | ACAGACGAAGGAGCCGCAAAGAAGTTAATAAGGGATGAATAATCTCTCAATATAAATATCTCTCACTTATTTAAA | 0.292 | 0.195 | 
29 | ACAGACGAAGGAGCCGCAAAGAAGTTAATAAGGGATGAATAATGCCTCAATATAAATATCTCTCACTTATTTAAA | 0.124 | 0.121 | 
30 | ACAGACGAAGGAGCCGCAAAGAAGTTAATAAGGGATGAATAATTCCTCAATATAAATATCTCTCACTTATTTAAA | 0.198 | 0.178 | 
31 | ACAGACGAAGGAGCCGCAAAGAAGTTAATAAGGGATGAATAGTCCCTCAATATAAATATCTCTCACTTATTTAAA | 0.263 |  | 
32 | ACAGACGAAGGAGCCGCAAAGAAGTTAATAAGGGATGAATATTCCCTCAATATAAATATCTCTCACTTATTTAAA | 0.279 | 0.246 | 
33 | ACAGACGAAGGAGCCGCAAAGAAGTTAATAAGGGATGAATCATCCCTCAATATAAATATCTCTCACTTATTTAAA | 0.314 | 0.188 | 
34 | ACAGACGAAGGAGCCGCAAAGAAGTTAATAAGGGATGAATGATCCCTCAATATAAATATCTCTCACTTATTTAAA | 0.284 |  | 
35 | ACAGACGAAGGAGCCGCAAAGAAGTTAATAAGGGATGAATTATCCCTCAATATAAATATCTCTCACTTATTTAAA | 0.339 |  | 
36 | ACAGACGAAGGAGCCGCAAAGAAGTTAATAAGGGATGACTAATCCCTCAATATAAATATCTCTCACTTATTTAAA | 0.308 |  | 
37 | ACAGACGAAGGAGCCGCAAAGAAGTTAATAAGGGATGCATAATCCCTCAATATAAATATCTCTCACTTATTTAAA | 0.301 |  | 
38 | ACAGACGAAGGAGCCGCAAAGAAGTTAATAAGGGATGTATAATCCCTCAATATAAATATCTCTCACTTATTTAAA | 0.322 |  | 
39 | ACAGACGAAGGAGCCGCAAAGAAGTTAATAAGGGATTAATAATCCCTCAATATAAATATCTCTCACTTATTTAAA | 0.313 | 0.218 | 
40 | ACAGACGAAGGAGCCGCAAAGAAGTTAATAAGGTATGAATAATCCCTCAATATAAATATCTCTCACTTATTTAAA | 0.15 | 0.0951 | 

Row | Sequence | cleaved RNA product abundance [1] | cleaved RNA product abundance [2] | cleaved RNA product abundance (experiment (reporter, strain, medium): exp 6: tetM reporter, strain 168)
41 | ACAGACGAAGGAGCCGCAAAGAAGTTAATAAGTGATGAATAATCCCTCAATATAAATATCTCTCACTTATTTAAA | 0.129 | 0.167 | 
42 | ACAGACGAAGGAGCCGCAAAGAAGTTAATAATGGATGAATAATCCCTCAATATAAATATCTCTCACTTATTTAAA | 0.137 | 0.104 | 
43 | ACAGACGAAGGAGCCGCAAAGAAGTTAATAGGGGATGAATAATCCCTCAATATAAATATCTCTCACTTATTTAAA | 0.292 |  | 
44 | ACAGACGAAGGAGCCGCAAAGAAGTTACAAAGGGATGAATAATCCCACAATATAAATATCTCTCACTTATTTAAA | 0.157 |  | 
45 | ACAGACGAAGGAGCCGCAAAGAAGTTACAAAGGGATGAATAATCCCTCAATATAAATATCTCTCACTTATTTAAA | 0.257 |  | 
46 | ACAGACGAAGGAGCCGCAAAGAAGTTACTAAAGGATGAATAATCCCTCAATATAAATATCTCTCACTTATTTAAA | 0.171 | 0.0999 | 
47 | ACAGACGAAGGAGCCGCAAAGAAGTTACTAACGGATGAATAATCCCTCAATATAAATATCTCTCACTTATTTAAA | 0.162 | 0.0838 | 
48 | ACAGACGAAGGAGCCGCAAAGAAGTTACTAAGGAATGAATAATCCCTCAATATAAATATCTCTCACTTATTTAAA | 0.143 | 0.0952 | 
49 | ACAGACGAAGGAGCCGCAAAGAAGTTACTAAGGCATGAATAATCCCTCAATATAAATATCTCTCACTTATTTAAA | 0.112 |  | 
50 | ACAGACGAAGGAGCCGCAAAGAAGTTACTAAGGGAAGAATAATCCCTCAATATAAATATCTCTCACTTATTTAAA | 0.138 |  | 
51 | ACAGACGAAGGAGCCGCAAAGAAGTTACTAAGGGACGAATAATCCCTCAATATAAATATCTCTCACTTATTTAAA |  | 0.131 | 
52 | ACAGACGAAGGAGCCGCAAAGAAGTTACTAAGGGATAAATAATCCCTCAATATAAATATCTCTCACTTATTTAAA | 0.224 | 0.206 | 
53 | ACAGACGAAGGAGCCGCAAAGAAGTTACTAAGGGATCAATAATCCCTCAATATAAATATCTCTCACTTATTTAAA | 0.208 |  | 
54 | ACAGACGAAGGAGCCGCAAAGAAGTTACTAAGGGATGAACAATCCCTCAATATAAATATCTCTCACTTATTTAAA | 0.266 |  | 
55 | ACAGACGAAGGAGCCGCAAAGAAGTTACTAAGGGATGAATAAACCCTCAATATAAATATCTCTCACTTATTTAAA | 0.14 |  | 
56 | ACAGACGAAGGAGCCGCAAAGAAGTTACTAAGGGATGAATAATCACTCAATATAAATATCTCTCACTTATTTAAA | 0.177 |  | 
57 | ACAGACGAAGGAGCCGCAAAGAAGTTACTAAGGGATGAATAATCCCACAATATAAATATCTCTCACTTATTTAAA | 0.153 | 0.126 | 
58 | ACAGACGAAGGAGCCGCAAAGAAGTTACTAAGGGATGAATAATCCCTAAATATAAATATCTCTCACTTATTTAAA | 0.253 |  | 
59 | ACAGACGAAGGAGCCGCAAAGAAGTTACTAAGGGATGAATAATCCCTCAAAATAAATATCTCTCACTTATTTAAA | 0.288 |  | 
